Numbering of substitutions follows the chain as printed. Names and notes keep the numbering of the source. Read-outs that look alike come from different tables or passages of the source.

Among the data in article PMC11507941 (bioRxiv, 2024) are Kd values, retold here.

Common to all, as to assay: fluorescence polarisation
On the technique in general: Fluorescence polarisation rises when a labelled molecule tumbles more slowly, as on binding a larger partner.

Experiment [1] addresses T1, WT SufS (E. coli, UniProt P77444 1-406, PLP cofactor attached to K226 as an internal aldimine).
T1 sequence: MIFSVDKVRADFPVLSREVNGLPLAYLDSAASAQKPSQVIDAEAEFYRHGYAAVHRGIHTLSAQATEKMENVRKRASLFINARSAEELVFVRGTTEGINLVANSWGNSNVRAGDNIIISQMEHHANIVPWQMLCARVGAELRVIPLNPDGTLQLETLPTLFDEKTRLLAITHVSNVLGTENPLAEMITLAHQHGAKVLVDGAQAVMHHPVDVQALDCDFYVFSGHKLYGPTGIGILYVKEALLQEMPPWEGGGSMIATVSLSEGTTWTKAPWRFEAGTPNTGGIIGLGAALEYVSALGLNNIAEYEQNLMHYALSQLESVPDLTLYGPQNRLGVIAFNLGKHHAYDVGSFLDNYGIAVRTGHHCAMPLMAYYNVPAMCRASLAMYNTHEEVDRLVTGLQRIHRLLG

Experiment [2] deals with T2, R359K SufS (E. coli, UniProt P77444 1-406, R359K, PLP cofactor (occupancy greater than 90%)).
T2 sequence: T1 sequence with R359K

For experiment [3], the target named is T3, R56A SufS (E. coli, UniProt P77444 1-406, R56A, PLP cofactor (occupancy greater than 90%)).
T3 sequence: T1 sequence with R56A

The target of experiment [4] is T4, R56K SufS (E. coli, UniProt P77444 1-406, R56K, PLP cofactor (occupancy greater than 90%)).
T4 sequence: T1 sequence with R56K

In experiment [5] the target is T5, R359A SufS (E. coli, UniProt P77444 1-406, R359A, PLP cofactor (occupancy greater than 90%)).
T5 sequence: T1 sequence with R359A

Experiment [6] addresses T1, WT SufS. This is another data set of the same source.
In experiment [7] the target is T2, R359K SufS. The source holds these as a separate data set.
Experiment [8] deals with T3, R56A SufS. The source holds these as a separate data set.
The target in experiment [9] is T4, R56K SufS. This is another data set of the same source.
The target of experiment [10] is T5, R359A SufS. This is another data set of the same source.

B1: BODIPY-FL labeled C51A/E107C SufE (natural protein, E. coli, UniProt P76194 1-138, looked up)
chain: MALLPDKEKLLRNFLRCANWEEKYLYIIELGQRLPELRDEDRSPQNSIQGAQSQVWIVMRQNAQGIIELQGDSDAAIVKGLIAVVFILYDQMTPQDIVNFDVRPWFCKMALTQHLTPSRSQGLEAMIRAIRAKAAALS
modifications: BODIPY FL maleimide label (labelling efficiency 60-80%)
For orientation: Kd means a measure of binding affinity in units of concentration. Low values mean higher affinity, high ones lower affinity. For the molecule B1, the Kd was 2500 ± 300 nM with WT SufS [1]; 4600 ± 500 nM with R359K SufS [2]; 5800 ± 900 nM with R56A SufS [3]; 8500 ± 1100 nM with R56K SufS [4]; 900 ± 200 nM with R359A SufS [5]; 200 ± 100 nM in the experiment with WT SufS [6]. For the same molecule, the equilibrium dissociation constant (Kd) was found to be 2800 ± 300 nM with R359K SufS [7], 4000 ± 400 nM with R56A SufS [8], 2800 ± 300 nM with R56K SufS [9] and 300 ± 100 nM with R359A SufS [10].
